Patent US20260139030A1

Biological target: TNFα (Examples 10 and 11)
Assay: cell-based or functional assay

Substance	SEAP activity (NFκB/AP-1 reporter) in HEK-Blue Dectin2 cells, reduction against TNFα plus irrelevant protein
TNFR2-Fc-Clec7a chimeric protein (Examples 10 and 11) (Fc fusion; the values are: fold reduction in SEAP activity)	4 fold
TNFR2-Fc-Dectin2 chimeric protein (Examples 10 and 11) (Fc fusion; the values are: fold reduction in SEAP activity)	> 20 fold
